Data published in publication PMC8251938, “Cooperation between a T Domain and a Minimal C‐Terminal Docking Domain to Enable Specific Assembly in a Multiprotein NRPS” (Angewandte Chemie (International Ed. in English), 2021).

Assays:
[1] = biological target: PaxA_(981-1084), T1-CDD di-domain construct (apo), X. cabanillasii JM26 (Xenorhabdus cabanillasii JM26) (UniProt W1J0W9); assay: ITC; PaxA construct titrated with the PaxB NDD peptide or its variant; n=3 for the variants
[2] = biological target: PaxA_(986-1089), T1-CDD di-domain construct (apo), X. bovienii SS-2004 (Xenorhabdus bovienii SS-2004); assay: as above
[3] = biological target: T1, PaxB_(1-30) (PaxB NDD), X. cabanillasii JM26 (Xenorhabdus cabanillasii JM26); assay: ITC; replicate 1
T1 chain: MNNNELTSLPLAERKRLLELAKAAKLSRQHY

[4] = biological target: T1, PaxB_(1-30) (PaxB NDD), X. cabanillasii …; assay: ITC; replicate 3
[5] = biological target: T1, PaxB_(1-30) (PaxB NDD), X. cabanillasii …; assay: ITC; apo, replicate 1
[6] = biological target: T1, PaxB_(1-30) (PaxB NDD), X. cabanillasii …; assay: ITC; apo, replicate 3
[7] = biological target: T1, PaxB_(1-30) (PaxB NDD), X. cabanillasii …; assay: ITC; holo (Ppant), replicate 1
[8] = biological target: T1, PaxB_(1-30) (PaxB NDD), X. cabanillasii …; assay: ITC; holo (Ppant), replicate 2
[9] = biological target: T1, PaxB_(1-30) (PaxB NDD), X. cabanillasii …; assay: ITC; holo (Ppant), replicate 3
[10] = biological target: T1, PaxB_(1-30) (PaxB NDD), X. cabanillasii …; assay: ITC; holo (Ppant), mean of three replicates
PaxB NDD = assay: ITC titration of X. cabanillasii PaxA constructs with PaxB NDD; assay type: binding, Xenorhabdus cabanillasii JM26; settings: X. cabanillasii JM26, 20 °C, pH 6.5, one site model
Description: Unfortunately, despite its very high affinity the complex between the PaxA T1‐^CDD di‐domain construct and the PaxB ^NDD peptide from the PaxS NRPS from X. bovienii SS‐2004 was not suitable for a full structure determination. The closely related species Xenorhabdus cabanillasii JM26 also contains the PaxS NRPS with PaxA and PaxB (Figure S4). […] The affinity of this interaction was not modulated by the presence of the Ppant moiety in the PaxA T1 domain (Figure S7). […] Thus, the interaction between PaxA and PaxB from the PaxS NRPS of X. cabanillasii has biophysical properties very similar to the one from the X. bovienii system and was amenable to a full structural characterization by NMR spectroscopy.
England BioLabs) approach following the manufacturer`s instructions.
Protein expression and purification […]
interactions, proteins from Xenorhabdus cabanillasii and Xenorhabdus bovienii were […]
BAP1 under the control of a T7 promoter. All proteins of interest were expressed as SUMO […]
concentration measurements upon cleavage with Ulp protease. All constructs containing the […]
measurements, proteins were expressed in LB medium. Protein expression was induced at an […]
After expression, cells were lysed by […]
spectrometers equipped with cryogenic 5 mm triple resonance probes. The proton chemical […]
mercaptoethanol and 5 % D2O. Sequential assignments of backbone amide signals and […]

“PaxB NDD R16E mutant, X. cabanillasii JM26 (domain or fragment)” was tested, and the Kd [1] was 2.8 µM.

“PaxB_(1-36) (PaxB NDD), X. bovienii SS-2004 (domain or fragment)” gave a Kd [2] of 0.201 µM and a stoichiometry N [2] of 0.74.

For “PaxB NDD K22E mutant, X. cabanillasii JM26 (domain or fragment)”, the Kd [1] was 3.8 µM.

Work on “PaxB_(1-30) (PaxB NDD), X. cabanillasii JM26 (domain or fragment)” yielded a Kd [1] of 0.248 µM and a stoichiometry N [1] of 0.88.

For “PaxB NDD P10L variant, X. cabanillasii JM26 (domain or fragment)”, the Kd [1] was 3.9 µM.

B1: PaxA_(981-1084), T1-CDD di-domain construct (apo), X. cabanillasii JM26 (domain or fragment)
chain: DHSSVITQEYAAPQGEIEEQLADIWQTILKIDRIGRYDNFFELGGHSLLVLQLQSRINEIFDVDISIQQLFAHPSICQLEECIINAQLLQFDADSLQDIYKSME
B1 showed a Kd [3] of 0.267 µM, a Kd [4] of 0.224 µM and a Kd [5] of 0.267 µM. It also gave a Kd [6] of 0.224 µM.

B2: PaxA T1-CDD di-domain with the Ppant moiety (holo), X. cabanillasii JM26 (domain or fragment)
chain: DHSSVITQEYAAPQGEIEEQLADIWQTILKIDRIGRYDNFFELGGHSLLVLQLQSRINEIFDVDISIQQLFAHPSICQLEECIINAQLLQFDADSLQDIYKSME
modifications: phosphopantetheinyl (Ppant) arm attached to residue S1027
Molecule B2 has a Kd [7] of 0.248 µM, a Kd [8] of 0.22 µM and a Kd [9] of 0.192 µM. It also gave a Kd [10] of 0.22 µM.

B3: PaxA981–1084: X. cabanillasii PaxA T1-CDD di-domain (protein)
chain: DHSSVITQEYAAPQGEIEEQLADIWQTILKIDRIGRYDNFFELGGHSLLVLQLQSRINEIFDVDISIQQLFAHPSICQLEECIINAQLLQFDADSLQDIYKSME
In the case of B3, the “n (binding stoichiometry)” value (PaxB NDD) is reported as 0.88±0.01 sites.
